In data set [1] the target is T1, homoserine dehydrogenase (HseDH) (Pyrococcus horikoshii, UniProt O58802, K57A).
T1 construct: gene PH1075; ordered residues 1-319 in each subunit (homodimer)
T1 sequence (O58802 1-319 K57A): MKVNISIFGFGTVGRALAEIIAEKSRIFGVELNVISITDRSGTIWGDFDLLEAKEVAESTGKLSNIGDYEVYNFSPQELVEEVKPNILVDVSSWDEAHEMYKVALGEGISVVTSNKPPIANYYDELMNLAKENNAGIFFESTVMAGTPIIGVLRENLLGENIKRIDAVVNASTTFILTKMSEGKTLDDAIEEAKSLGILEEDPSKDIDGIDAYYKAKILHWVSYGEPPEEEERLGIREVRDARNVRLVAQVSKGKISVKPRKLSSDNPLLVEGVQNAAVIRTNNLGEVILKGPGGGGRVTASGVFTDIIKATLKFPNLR
Kind of data set: crystal structure at […] Å (with Hse); FT-ICR MS. Format: binding.

The target of data set [2] is T2, homoserine dehydrogenase (HseDH) (Pyrococcus horikoshii, UniProt O58802, R40A).
T2 construct: gene PH1075; His-tagged HseDH
T2 sequence (O58802 1-319 R40A): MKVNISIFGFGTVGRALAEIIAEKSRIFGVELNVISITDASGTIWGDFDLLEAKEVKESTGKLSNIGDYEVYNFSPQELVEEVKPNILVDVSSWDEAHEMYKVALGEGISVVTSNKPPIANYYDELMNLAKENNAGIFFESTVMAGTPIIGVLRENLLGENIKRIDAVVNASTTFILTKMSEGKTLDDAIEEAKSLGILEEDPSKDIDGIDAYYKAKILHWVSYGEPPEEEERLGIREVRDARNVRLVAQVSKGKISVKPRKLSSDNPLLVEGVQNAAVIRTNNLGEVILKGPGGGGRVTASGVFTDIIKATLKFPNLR
The data set can be described thus: FT-ICR MS of cofactor released from purified protein. Format: binding.

Data set [3] addresses T3, homoserine dehydrogenase (HseDH) (Pyrococcus horikoshii, UniProt O58802).
T3 sequence (O58802 1-319): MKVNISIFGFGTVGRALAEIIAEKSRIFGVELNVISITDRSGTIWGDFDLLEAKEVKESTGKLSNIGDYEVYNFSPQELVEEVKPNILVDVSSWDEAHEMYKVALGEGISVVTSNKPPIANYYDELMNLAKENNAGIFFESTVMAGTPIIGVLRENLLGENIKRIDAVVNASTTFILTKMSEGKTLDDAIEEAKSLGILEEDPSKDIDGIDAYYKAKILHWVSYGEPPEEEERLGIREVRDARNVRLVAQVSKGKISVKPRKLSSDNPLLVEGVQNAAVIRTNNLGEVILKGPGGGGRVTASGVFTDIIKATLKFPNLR
The data set can be described thus: crystal structure at […] Å; FT-ICR MS of released cofactor. It is filed as binding. The arrangement: gene PH1075; ordered residues 1-319 in each subunit (homodimer).

In data set [4] the target is T3, homoserine dehydrogenase (HseDH). The data set can be described thus: inhibition of NAD-dependent Hse oxidation, Morrison tight-binding fit. Format: biochemical. The arrangement: gene PH1075; His-tagged HseDH.
The target of data set [5] is T1, homoserine dehydrogenase (HseDH). Kind of data set: crystal structure at […] Å (with NADPH). It is filed as binding.
Substrate in data set [6]: NC(=O)C1=CN([C@@H]2O[C@H](COP(=O)(O)OP(=O)(O)OC[C@H]3O[C@@H](n4cnc5c(N)ncnc54)[C@H](O)[C@@H]3O)[C@@H](O)[C@H]2O)C=CC1
Kind of data set: purified protein. The settings on record: varied: cofactor.

Substrate in data set [7]: N[C@@H](CCO)C(=O)O
Kind of data set: purified protein. Particulars: NAD.

Data set [8] concerns the molecule itself. Kind of data set: SEC; gel filtration on Superose 6 10/300 GL, 10 mM Tris-HCl (pH 7.5) with 0.2 M NaCl; native mass against Bio-Rad gel filtration standards. In general terms: SEC sorts molecules by how far they enter the pores of the column.
Substrate in data set [9]: NC(=O)c1ccc[n+]([C@@H]2O[C@H](COP(=O)([O-])OP(=O)(O)OC[C@H]3O[C@@H](n4cnc5c(N)ncnc54)[C@H](O)[C@@H]3O)[C@@H](O)[C@H]2O)c1
Kind of data set: purified protein. Format: biochemical, Pyrococcus horikoshii. Particulars: varied: cofactor.

Data set [10] deals with the molecule itself. The data set can be described thus: crystal structure; sitting-drop vapor diffusion at 20 °C; wild type: 0.1 M potassium phosphate pH 6.2, 20% MPD; K57A with 1 mM Hse: 16% PEG monomethyl ether 2000, 0.1 M citrate pH 6.5; one homodimer in the asymmetric unit.
Substrate in data set [11]: NC(=O)c1ccc[n+]([C@@H]2O[C@H](COP(=O)(O)OP(=O)(O)OC[C@H]3O[C@@H](n4cnc5c(N)ncnc54)[C@H](OP(=O)(O)O)[C@@H]3O)[C@@H](O)[C@H]2O)c1
Kind of data set: purified protein. Format: biochemical, Pyrococcus horikoshii. Particulars: varied: cofactor.

With `NC(=O)C1=CN([C@@H]2O[C@H](COP(=O)(O)OP(=O)(O)OC[C@H]3O[C@@H](n4cnc5c(N)ncnc54)[C@H](OP(=O)(O)O)[C@@H]3O)[C@@H](O)[C@H]2O)C=CC1` [NADPH], the “crystal structure at 2.43 Å (with Hse); FT-ICR MS” value in data set [1] is listed as “we observed a clear density corresponding to the cofactor bound within the nucleotide-binding site”. The “FT-ICR MS of cofactor released from purified protein” value in data set [2] is recorded as “indicating that NADPH tightly bound to R40A, as in the case of the wild type enzyme”. In addition, the “crystal structure at 2.30 Å; FT-ICR MS of released cofactor” value in data set [3] is reported as “These results demonstrate that the molecule bound to P. horikoshii HseDH is NADPH”.

In general, Ki refers to a dissociation constant, usually derived from enzyme kinetics or from competition with a known ligand. Low values mean tighter binding, high ones weaker binding. Molecule `NC(=O)c1ccc[n+]([C@@H]2O[C@H](COP(=O)(O)OP(=O)(O)OC[C@H]3O[C@@H](n4cnc5c(N)ncnc54)[C@H](OP(=O)(O)O)[C@@H]3O)[C@@H](O)[C@H]2O)c1` [NADP] had a Ki in data set [4] of 5.2 ± 0.1 nM.

As for `N[C@@H](CCO)C(=O)O` [Hse], the “crystal structure at 2.43 Å (with NADPH)” value in data set [5] was “extra density within the active site cavity, and after construction and refinement of the peptide chain, a Hse molecule could be modeled”.

B1: Pyrococcus horikoshii homoserine dehydrogenase (HseDH), His-tagged wild type (enzyme, UniProt O58802 1-319, looked up)
chain: MKVNISIFGFGTVGRALAEIIAEKSRIFGVELNVISITDRSGTIWGDFDLLEAKEVKESTGKLSNIGDYEVYNFSPQELVEEVKPNILVDVSSWDEAHEMYKVALGEGISVVTSNKPPIANYYDELMNLAKENNAGIFFESTVMAGTPIIGVLRENLLGENIKRIDAVVNASTTFILTKMSEGKTLDDAIEEAKSLGILEEDPSKDIDGIDAYYKAKILHWVSYGEPPEEEERLGIREVRDARNVRLVAQVSKGKISVKPRKLSSDNPLLVEGVQNAAVIRTNNLGEVILKGPGGGGRVTASGVFTDIIKATLKFPNLR
notes: Homoserine dehydrogenase, Pyrococcus horikoshii, open reading frame PH1075; amplified from the initiation codon to the termination codon; ordered residues 1-319 in each subunit of the crystal; calculated molecular weight 36,925; Expressed from pColdI (construct pCHseDH); the vector probably adds an N-terminal His6 tag with a factor Xa site (surmised); no tag removal is described; also called P. …
Broadly, the Km is the concentration of substrate that gives half-maximal velocity. What is called stoichiometry N is the number of molecules, sites or subunits per partner or assembly. For orientation: Vmax means the rate approached at saturating substrate. As usually defined, the kcat is the maximal rate divided by the concentration of active sites. The term kcat/Km denotes the second-order rate constant that governs catalysis at low substrate concentration. As for B1, the Km in “purified protein [6]” stood at 19 ± 10 µM. In the data set “purified protein [7]”, the Km came out at 6100 ± 100 µM. Also, the “stoichiometry N” value in data set [8] is 2. In “purified protein [9]”, the Michaelis constant (Km) worked out at 320 ± 40 µM, the maximum rate (Vmax) was found to be 114 µmol/min/mg, the turnover number (kcat) came to 70.1 ± 4.5 s⁻¹ and the catalytic efficiency (kcat/Km) was 219000 ± 13000 M⁻¹ s⁻¹.

B2: Pyrococcus horikoshii homoserine dehydrogenase (HseDH) K57A mutant, His-tagged (enzyme, UniProt O58802 1-319, looked up)
chain: MKVNISIFGFGTVGRALAEIIAEKSRIFGVELNVISITDRSGTIWGDFDLLEAKEVAESTGKLSNIGDYEVYNFSPQELVEEVKPNILVDVSSWDEAHEMYKVALGEGISVVTSNKPPIANYYDELMNLAKENNAGIFFESTVMAGTPIIGVLRENLLGENIKRIDAVVNASTTFILTKMSEGKTLDDAIEEAKSLGILEEDPSKDIDGIDAYYKAKILHWVSYGEPPEEEERLGIREVRDARNVRLVAQVSKGKISVKPRKLSSDNPLLVEGVQNAAVIRTNNLGEVILKGPGGGGRVTASGVFTDIIKATLKFPNLR
notes: Homoserine dehydrogenase, Pyrococcus horikoshii, open reading frame PH1075, with K57A made by site-directed mutagenesis of pCHseDH; ordered residues 1-319 in each subunit of the crystal; Made from pCHseDH (pColdI); the vector probably adds an N-terminal His6 tag (surmised); Crystallized with Hse; source: E. coli BL21 (DE3) codon plus-RIPL, purified (same method as the His-tagged wild type)
On to B2, for which, in data set [10], the binding result is given as “binds”. In the data set “purified protein [11]”, the Km was 60 ± 10 µM, the Vmax came out at 43.3 µmol/min/mg, the turnover number (kcat) stood at 26.7 ± 0.2 s⁻¹ and the kcat/Km stood at 518000 ± 29000 M⁻¹ s⁻¹.

B3: homoserine dehydrogenase (HseDH) (Pyrococcus horikoshii OT3; R40A) (protein)
chain: MKVNISIFGFGTVGRALAEIIAEKSRIFGVELNVISITDASGTIWGDFDLLEAKEVKESTGKLSNIGDYEVYNFSPQELVEEVKPNILVDVSSWDEAHEMYKVALGEGISVVTSNKPPIANYYDELMNLAKENNAGIFFESTVMAGTPIIGVLRENLLGENIKRIDAVVNASTTFILTKMSEGKTLDDAIEEAKSLGILEEDPSKDIDGIDAYYKAKILHWVSYGEPPEEEERLGIREVRDARNVRLVAQVSKGKISVKPRKLSSDNPLLVEGVQNAAVIRTNNLGEVILKGPGGGGRVTASGVFTDIIKATLKFPNLR
notes: His-tagged HseDH
Regarding B3, in the data set “purified protein [11]”, the Michaelis-Menten constant (Km) turned out to be 40 ± 10 µM, the Vmax was found to be 5.5 µmol/min/mg, the kcat turned out to be 3.4 ± 0.2 s⁻¹ and the kcat/Km amounted to 89100 ± 900 M⁻¹ s⁻¹.
